In article PMC12607630, “ZapC crosslinks FtsZ filaments through a dual-binding mechanism modulated by the intrinsically disordered linker of FtsZ in Escherichia coli” (mBio, 2025):
Several values for one entry are separate records, joined by “and”; a condition that tells them apart may be missing. Equal entries are not always repeated.

Target: T1, FtsZ (untagged, wild type) (Escherichia coli, UniProt P0A9A6 1-383)
T1 construct: also called wild-type FtsZ; source: E. coli BL21(DE3), plasmid pLY17, purified (Ni-NTA); 6×His-SUMO tag removed with Ulp1; not shown: 6×His-SUMO, N-terminal, cleaved
T1 sequence (looked up): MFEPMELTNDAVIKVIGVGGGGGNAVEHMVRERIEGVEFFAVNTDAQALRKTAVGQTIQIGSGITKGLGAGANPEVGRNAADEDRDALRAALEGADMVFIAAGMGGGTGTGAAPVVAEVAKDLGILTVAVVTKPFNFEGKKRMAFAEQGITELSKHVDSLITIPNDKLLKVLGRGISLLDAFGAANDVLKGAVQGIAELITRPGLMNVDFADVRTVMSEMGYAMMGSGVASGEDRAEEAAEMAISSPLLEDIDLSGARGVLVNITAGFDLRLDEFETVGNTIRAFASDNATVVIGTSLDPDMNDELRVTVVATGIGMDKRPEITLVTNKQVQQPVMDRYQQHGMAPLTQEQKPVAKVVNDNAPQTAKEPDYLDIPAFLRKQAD
Assay: BLI; 6×His-ZapC or its mutants (0.5 µM) loaded on Ni-NTA biosensors, untagged FtsZ or its variants in solution; Octet-Red96, 30°C, 1× Pol buffer (50 mM HEPES-NaOH pH 6.8, 50 mM KCl, 10 mM MgCl2); apparent Kd from the signal at the end of association against concentration, one-site fit; three repeats with mean (X) and SD
Conditions: both partners purified

- Kd: 377 nM and 395 nM and 488 nM and 420 nM
B1: 6×His-ZapC (natural protein)
chain: not shown
notes: ZapC, FtsZ-associated protein of Escherichia coli; Construction of pSD323 is not described; also called His-tagged ZapC; source: E. coli, plasmid pSD323 (pQE80, Plac::6×His-ZapC), purified (Ni-NTA); not shown: His6, N-terminal, kept
